Data as given in patent publication US20030232013A1, “Therapeutic and diagnostic targeting of cancers cells with tumor homing peptides” (priority 2002, published 2003).
Like-named read-outs stand apart in the source and are kept apart here. Bridge positions count the residues as written; N and C are the ends. Peptide text beside a SMILES is read from it. * marks the point of attachment. DOTA = O=C(O)CN1CCN(CC(=O)O)CCN(CC(=O)*)CCN(CC(=O)O)CC1; Ahx = NCCCCCC(=O)O

Experiment: In vivo biodistribution in MB-231 tumor bearing SCID mice
Conditions: female, ICR SCID, mouse, iv, total radioactivity; for tissue uptake at 1 h / dose excreted at 1 h: 1 hour post-injection; for tissue uptake at 24 h / dose excreted at 24 h: 24 hours post-injection
Description: In vivo iodistribution studies. Four- to 5-week old female ICR SCID ([…]) outbred mice were obtained from Taconic (Germantown, N.Y.). The mice were housed five animals per cage in sterile micro isolator cages in a temperature- and humidity-controlled room with a 12-hour light/12-hour dark schedule. The animals were fed autoclaved rodent chow (Ralston Purina Company, St. Louis, Mo.) and water ad libitum. Animals were housed one week prior to inoculation of tumor cells and anesthetized for injections with isoflurane (Baxter Healthcare Corp., Deerfield, Ill.) at a rate of 2.5% with 0.4L oxygen through a non-rebreathing anesthesia vaporizer.
Human breast cancer MB231 and T47D cells were injected on the bilateral subcutaneous (s.c.) flank with ˜5×10^6 cells in a suspension of 100 μl normal sterile saline per injection site. MB231 and T47D cells were allowed to grow in vivo two to three weeks post inoculation developing tumors ranging in sizes from 0.02-1.30 grams. The biodistribution and uptake of ^111In-DOTA-Phe^19-STh or ^111In-DOTA-6-Ahx-Phe^19-STh in tumor bearing SCID mice was studied. The mice (average weight, 25 g) were injected with aliquots (50-100 μl) of the radiolabeled peptide solution (55-75 kBq) in each animal via the tail vein. Tissues, organs and tumors were excised from the animals sacrificed at 1 hr, 4 hrs and 24 hrs p.i. For blocking studies, an access of non-radioactive 6-Ahx-Phe^19-STh (100 μg) was also injected along with the radiolabeled peptide solution. The radioactivity was measured in a NaI counter and the percent-injected dose per organ and the percent-injected dose per gram tissue were calculated (Tables 5 and 6). Animal studies were conducted in accordance with the highest standards of care as outlined in the NIH guide for Care and Use of Laboratory Animals and the Policy and Procedures for Animal Research at the Harry S. Truman Memorial VA Hospital and according to approved protocols.

CC(C)C[C@@H]1NC(=O)[C@H](CCC(=O)O)NC(=O)[C@@H]2CSSC[C@@H]3NC(=O)[C@H](C)NC(=O)[C@@H]4CCCN4C(=O)[C@H](CC(N)=O)NC(=O)[C@H](CSSC[C@H](NC(=O)[C@H](Cc4ccc(O)cc4)NC(=O)[C@H](CC(N)=O)NC(=O)[C@H](CO)NC(=O)[C@H](CO)NC(=O)[C@H](CC(N)=O)NC(=O)CCCCCNC(=O)CN4CCN(CC(=O)O)CCN(CC(=O)O)CCN(CC(=O)O)CC4)C(=O)N2)NC(=O)[C@H](CSSC[C@@H](C(=O)N[C@@H](Cc2ccccc2)C(=O)O)NC(=O)CNC(=O)[C@H]([C@@H](C)O)NC3=O)NC1=O [^111In-DOTA-6-Ahx-Phe^19-STh, metal not drawn] ({DOTA-Ahx}-NSSNYCCELCCNPACTGCF-OH; disulfide 6-11, 7-15, 10-18)
tissue uptake at 1 h (MB-231 tumor, MB-231 tumor, Blocking (100 μg non-radioactive 6-Ahx-Phe^19-STh co-injected), n = 4, read-out: biodistribution, Tumor): 0.84 ± 0.3 %ID/g | tissue uptake at 1 h (MB-231 tumor, MB-231 tumor, n = 5, read-out: biodistribution, Tumor): 0.7 ± 0.16 %ID/g | tissue uptake at 4 h (MB-231 tumor, MB-231 tumor, 4 hours post-injection, n = 5, read-out: biodistribution, Tumor): 0.24 ± 0.12 %ID/g | tissue uptake at 24 h (MB-231 tumor, MB-231 tumor, n = 4, read-out: biodistribution, Tumor): 0.13 ± 0.16 %ID/g | tissue uptake at 1 h (blood, Blocking (100 μg non-radioactive 6-Ahx-Phe^19-STh co-injected), n = 4, read-out: biodistribution, Blood): 0.85 ± 0.31 %ID/g | tissue uptake at 1 h (blood, n = 5, read-out: biodistribution, Blood): 0.57 ± 0.13 %ID/g | tissue uptake at 4 h (blood, 4 hours post-injection, n = 5, read-out: biodistribution, Blood): 0.04 ± 0.05 %ID/g | tissue uptake at 24 h (blood, n = 4, read-out: biodistribution, Blood): 0.01 ± 0.02 %ID/g | dose excreted at 24 h (faeces, n = 4, read-out: biodistribution, Feces (Avg % ID)): 14.2 ± 17.3% | tissue uptake at 1 h (heart, Blocking (100 μg non-radioactive 6-Ahx-Phe^19-STh co-injected), n = 4, read-out: biodistribution, Heart): 0.24 ± 0.11 %ID/g | tissue uptake at 1 h (heart, n = 5, read-out: biodistribution, Heart): 0.14 ± 0.03 %ID/g | tissue uptake at 4 h (heart, 4 hours post-injection, n = 5, read-out: biodistribution, Heart): 0.06 ± 0.06 %ID/g | tissue uptake at 24 h (heart, n = 4, read-out: biodistribution, Heart): 0.03 ± 0.03 %ID/g | tissue uptake at 1 h (kidney, Blocking (100 μg non-radioactive 6-Ahx-Phe^19-STh co-injected), n = 4, read-out: biodistribution, Kidney): 12.8 ± 2.01 %ID/g | tissue uptake at 1 h (kidney, n = 5, read-out: biodistribution, Kidney): 4.98 ± 0.67 %ID/g | tissue uptake at 4 h (kidney, 4 hours post-injection, n = 5, read-out: biodistribution, Kidney): 4.96 ± 0.5 %ID/g | tissue uptake at 24 h (kidney, n = 4, read-out: biodistribution, Kidney): 2.94 ± 0.42 %ID/g | tissue uptake at 1 h (large intestine, Blocking (100 μg non-radioactive 6-Ahx-Phe^19-STh co-injected), n = 4, read-out: biodistribution, Large Intestine): 0.17 ± 0.03 %ID/g | tissue uptake at 1 h (large intestine, n = 5, read-out: biodistribution, Large Intestine): 0.37 ± 0.05 %ID/g | tissue uptake at 4 h (large intestine, 4 hours post-injection, n = 5, read-out: biodistribution, Large Intestine): 0.66 ± 0.52 %ID/g | tissue uptake at 24 h (large intestine, n = 4, read-out: biodistribution, Large Intestine): 1.5 ± 2.59 %ID/g | tissue uptake at 1 h (liver, Blocking (100 μg non-radioactive 6-Ahx-Phe^19-STh co-injected), n = 4, read-out: biodistribution, Liver): 0.33 ± 0.06 %ID/g | tissue uptake at 1 h (liver, n = 5, read-out: biodistribution, Liver): 0.2 ± 0.03 %ID/g | tissue uptake at 4 h (liver, 4 hours post-injection, n = 5, read-out: biodistribution, Liver): 0.09 ± 0.02 %ID/g | tissue uptake at 24 h (liver, n = 4, read-out: biodistribution, Liver): 0.05 ± 0.02 %ID/g | tissue uptake at 1 h (lung, Blocking (100 μg non-radioactive 6-Ahx-Phe^19-STh co-injected), n = 4, read-out: biodistribution, Lung): 0.49 ± 0.12 %ID/g | tissue uptake at 1 h (lung, n = 5, read-out: biodistribution, Lung): 0.31 ± 0.04 %ID/g | tissue uptake at 4 h (lung, 4 hours post-injection, n = 5, read-out: biodistribution, Lung): 0.08 ± 0.05 %ID/g | tissue uptake at 24 h (lung, n = 4, read-out: biodistribution, Lung): 0.01 ± 0.02 %ID/g | tissue uptake at 1 h (muscle, Blocking (100 μg non-radioactive 6-Ahx-Phe^19-STh co-injected), n = 4, read-out: biodistribution, Muscle): 0.1 ± 0.08 %ID/g | tissue uptake at 1 h (muscle, n = 5, read-out: biodistribution, Muscle): 0.1 ± 0.08 %ID/g | tissue uptake at 4 h (muscle, 4 hours post-injection, n = 5, read-out: biodistribution, Muscle): 0.04 ± 0.05 %ID/g | tissue uptake at 24 h (muscle, n = 4, read-out: biodistribution, Muscle): 0.02 ± 0.04 %ID/g | tissue uptake at 1 h (pancreas, Blocking (100 μg non-radioactive 6-Ahx-Phe^19-STh co-injected), n = 4, read-out: biodistribution, Pancreas): 0.21 ± 0.04 %ID/g | tissue uptake at 1 h (pancreas, n = 5, read-out: biodistribution, Pancreas): 0.13 ± 0.03 %ID/g | tissue uptake at 4 h (pancreas, 4 hours post-injection, n = 5, read-out: biodistribution, Pancreas): 0.05 ± 0.02 %ID/g | tissue uptake at 24 h (pancreas, n = 4, read-out: biodistribution, Pancreas): 0.03 ± 0.02 %ID/g | tissue uptake at 1 h (small intestine, Blocking (100 μg non-radioactive 6-Ahx-Phe^19-STh co-injected), n = 4, read-out: biodistribution, Small Intestine): 0.85 ± 1.19 %ID/g | tissue uptake at 1 h (small intestine, n = 5, read-out: biodistribution, Small Intestine): 0.99 ± 0.18 %ID/g | tissue uptake at 4 h (small intestine, 4 hours post-injection, n = 5, read-out: biodistribution, Small Intestine): 0.28 ± 0.07 %ID/g | tissue uptake at 24 h (small intestine, n = 4, read-out: biodistribution, Small Intestine): 0.21 ± 0.13 %ID/g | tissue uptake at 1 h (spleen, Blocking (100 μg non-radioactive 6-Ahx-Phe^19-STh co-injected), n = 4, read-out: biodistribution, Spleen): 0.12 ± 0.14 %ID/g | tissue uptake at 1 h (spleen, n = 5, read-out: biodistribution, Spleen): 0.15 ± 0.1 %ID/g | tissue uptake at 4 h (spleen, 4 hours post-injection, n = 5, read-out: biodistribution, Spleen): 0.05 ± 0.05 %ID/g | tissue uptake at 24 h (spleen, n = 4, read-out: biodistribution, Spleen): 0.02 ± 0.04 %ID/g | tissue uptake at 1 h (stomach, Blocking (100 μg non-radioactive 6-Ahx-Phe^19-STh co-injected), n = 4, read-out: biodistribution, Stomach): 2.18 ± 3.69 %ID/g | tissue uptake at 1 h (stomach, n = 5, read-out: biodistribution, Stomach): 0.31 ± 0.33 %ID/g | tissue uptake at 4 h (stomach, 4 hours post-injection, n = 5, read-out: biodistribution, Stomach): 0.03 ± 0.01 %ID/g | tissue uptake at 24 h (stomach, n = 4, read-out: biodistribution, Stomach): 0.09 ± 0.09 %ID/g | dose excreted at 1 h (urine, Blocking (100 μg non-radioactive 6-Ahx-Phe^19-STh co-injected), n = 4, read-out: biodistribution, Urine (Avg % ID)): 87.4 ± 4.5% | dose excreted at 1 h (urine, n = 5, read-out: biodistribution, Urine (Avg % ID)): 89.4 ± 2.9% | dose excreted at 4 h (urine, 4 hours post-injection, n = 5, read-out: biodistribution, Urine (Avg % ID)): 95.8 ± 1.4% | dose excreted at 24 h (urine, n = 4, read-out: biodistribution, Urine (Avg % ID)): 82.5 ± 20.3%
